# Assay results: publication PMC4557121 (2015)
# B1: A2 [not stated] / purified TRB3 protein [not stated] (parent complex)
# chain 1: GGWLTRLLQTK
# chain 2: MRATPLAAPAGSLSRKKRLELDDNLDTERPVQKRARSGPQPRLPPCLLPLSPPTAPDRATAVATASRLGPYVLLEPEEGGRAYQALHCPTGTEYTCKVYPVQEALAVLEPYARLPPHKHVARPTEVLAGTQLLYAFFTRTHGDMHSLVRSRHRIPEPEAAVLFRQMATALAHCHQHGLVLRDLKLCRFVFADRERKKLVLENLEDSCVLTGPDDSLWDKHACPAYVGPEILSSRASYSGKAADVWSLGVALFTMLAGHYPFQDSEPVLLFGKIRRGAYALPAGLSAPARCLVRCLLRREPAERLTATGILLHPWLRQDPMPLAPTRSHLWEAAQVVPDGLGLDEAREEEGDREVVLYG
# Variants of: B1
# Experiment: SPR; TRB3 immobilized on CM5 sensor chips
row,Kd [nM],Variant
1,381,chain 1 GGWLTRLLQAK [chain 1 T10A]
2,73.1,chain 1 GGWLTRLLQTA [chain 1 K11A]
3,0.142,chain 1 GGWLTALLQTK [chain 1 R6A]
4,402,chain 1 GAWLTRLLQTK [chain 1 G2A]
5,3590,chain 1 GGALTRLLQTK [chain 1 W3A]
6,4320,chain 1 GGWATRLLQTK [chain 1 L4A]
7,1640,chain 1 AGWLTRLLQTK [chain 1 G1A]
8,11800,chain 1 GGWLTRALQTK [chain 1 L7A]
9,110,chain 1 GGWLARLLQTK [chain 1 T5A]
10,35600,chain 1 GGWLTRLLATK [chain 1 Q9A]
